Consider 1 molecule from US20260241018A1 (BIOCYTOGEN PHARMACEUTICALS BEIJING, published 2026).

The target in one test is T1, h5T4-His protein (human, UniProt Q13641 32-355, limits assumed).
T1 construct: also called His-tagged human 5T4 protein; not shown: His tag
T1 sequence (looked up): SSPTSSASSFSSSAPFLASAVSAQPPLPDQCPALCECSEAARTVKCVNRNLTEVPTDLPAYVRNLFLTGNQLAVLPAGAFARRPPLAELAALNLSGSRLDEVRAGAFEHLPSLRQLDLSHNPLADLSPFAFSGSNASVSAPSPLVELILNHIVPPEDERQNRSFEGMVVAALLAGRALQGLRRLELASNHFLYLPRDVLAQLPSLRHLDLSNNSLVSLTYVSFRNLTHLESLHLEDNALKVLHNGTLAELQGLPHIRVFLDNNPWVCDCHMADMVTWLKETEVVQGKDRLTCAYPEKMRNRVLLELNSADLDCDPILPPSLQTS
Kind of test: epitope binding assay, h5T4-His captured; binder = analyte 2; competitor (analyte 1): 32E3. On the procedure: Epitope binding assays were performed using ForteBio Octet system to determine whether two anti-5T4 antibodies target the same or overlapping epitopes. 1×HBS-EP+buffer (10 mM 4-(2-hydroxyethyl)-1-piperazineethanesulfonic acid (HEPES), 150 mM NaCl, 3 mM ethylenediaminetetraacetic acid (EDTA) and 0.05% P20, pH7.4) diluted from HBS-EP+buffer (10×) was used as the running buffer throughout the experiment. About 50 RU of h5T4-His protein was captured at a flow rate of 10 μL/min, and 200 nM of the tested antibody was injected at a flow rate of 30 μL/min to bind the ligand. Another comparison antibody was injected under the same conditions to determine whether the binding of different antibodies interfered with each other. The binding time was 180 s for each antibody.
The binding value of each antibody was obtained using Data Analysis HT 12.0. To quantify the interference of one antibody binding to another, a binding ratio was calculated to compare each pair of antibodies. The binding ratio is defined as the binding value of the second antibody (analyte 2), divided by the binding value of the first antibody (analyte 1). […] In general, antibody pairs that interfere with each other have the same or overlapping epitopes.

Test [1] addresses T2, dog 5T4 expressed on CHO-S cells (CHO-d5T4 cells) (dog).
T2 chain: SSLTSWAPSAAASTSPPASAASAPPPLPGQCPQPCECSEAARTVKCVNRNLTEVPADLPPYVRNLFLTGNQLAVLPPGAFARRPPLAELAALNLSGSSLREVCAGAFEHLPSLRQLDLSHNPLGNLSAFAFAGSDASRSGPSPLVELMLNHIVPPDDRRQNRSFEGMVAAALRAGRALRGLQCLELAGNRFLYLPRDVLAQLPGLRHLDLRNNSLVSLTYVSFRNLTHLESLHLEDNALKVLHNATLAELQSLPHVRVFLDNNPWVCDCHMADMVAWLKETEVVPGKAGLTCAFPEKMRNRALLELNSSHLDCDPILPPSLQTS
Kind of test: flow cytometry, CHO-d5T4 cells. On the procedure:
CHO-h5T4 cells, CHO-m5T4 cells, CHO-fas5T4 cells or CHO-d5T4 cells were transferred to a 96-well plate at a density of 2×10⁵ cells/well respectively. The anti-5T4 antibodies were added to the 96-well plate, and incubated at 4° C. for 30 min. Then, the cells were incubated with the secondary antibody anti-hlgG-Fc-Alex Flour 647 (RL1-H) (Jackson ImmunoResearch Laboratories, Inc., Cat #: 109-606-170) at 4° C. in the dark for 15 minutes before flow cytometry analysis.
Background: Flow cytometry measures light scatter and fluorescence of single cells or particles in a stream.

The target in test [2] is T3, 5T4 on NCI-H226 cells, NCI-H2030 cells and HCC827 cells (UniProt Q13641 32-420, limits assumed).
T3 construct: whole, on cells
T3 sequence (looked up): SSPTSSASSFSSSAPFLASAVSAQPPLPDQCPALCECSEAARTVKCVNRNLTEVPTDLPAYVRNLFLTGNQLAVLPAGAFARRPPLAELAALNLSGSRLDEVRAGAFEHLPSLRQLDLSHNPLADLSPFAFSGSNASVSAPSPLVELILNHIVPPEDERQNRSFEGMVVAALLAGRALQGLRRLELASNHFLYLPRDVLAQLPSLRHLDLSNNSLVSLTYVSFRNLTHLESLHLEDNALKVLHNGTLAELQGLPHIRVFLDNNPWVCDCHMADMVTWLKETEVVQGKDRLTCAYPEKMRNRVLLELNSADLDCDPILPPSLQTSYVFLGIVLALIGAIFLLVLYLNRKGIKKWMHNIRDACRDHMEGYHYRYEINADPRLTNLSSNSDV
The experiment in a line: flow cytometry on NCI-H226 cells, Alexa Fluor 647 anti-human IgG Fc secondary antibody, MFI. On the procedure:
NCI-H226 cells, NCI-H2030 cells or HCC827 cells were plated in a 96-well plate at a density of 2×10⁵ cells/well. Serially diluted purified anti-5T4 antibody 32G1 or the positive control PF06263507 analog-SI (maximum concentration: 20 μg/mL, 2-fold dilutions, 12 gradients) were added to each well and were incubated at 4° C. for 30 minutes. Then, after one wash with PBS, the cells were incubated with the secondary antibody Alexa Fluor® 647 anti human IgG Fcγ (Jackson ImmunoResearch Laboratories, Inc., Cat #: 109-606-170) at 4° C. for 15 minutes before flow cytometry analysis.
The cells were collected, and the mean fluorescence intensity (MFI) was determined.

Test [3] concerns the target T4, His-tagged 5T4 protein of human (h5T4, ACRO Biosystems Inc., Cat #: TPG-H52E5) (human, UniProt Q13641 32-355).
T4 construct: Bought protein; not shown: His tag
T4 sequence (looked up): T1 sequence (looked up)
Kind of test: SPR (Biacore 8K), antibody captured on Protein A chip, His-tagged 5T4 as analyte. How it is done:
Purified anti-5T4 antibodies were diluted to 2 μg/mL and then injected into the Biacore™ 8K biosensor at 10 μL/min for about 50 seconds to achieve a desired protein density (e.g., about 50 response units (RU)). His-tagged 5T4 protein at a concentration of 200 nM was then injected at 30 μL/min for 180 seconds. Dissociation was monitored for 400 seconds. The chip was regenerated after the last injection of each titration with Glycine (pH 2.0), 30 μL/min for 30 seconds. For ISO control, an antibody targeting an irrelevant target protein was used.
As a person of ordinary skill in the art would understand, the same method with appropriate adjustments for parameters (e.g., antibody concentration) was performed for each tested antibody.
On the technique in general: In SPR one partner is held on a chip, and binding of the other changes the refractive index at the surface.

B1: 32G1 (antibody, V domains shown)
VH: QVQLVQSGGGLVKPGGSLRLSCVASGFTFSDYYMNWVRQAPGKGLEWISYVGTESIYTYYADTVKGRFTISRDNAKNSLYLQMNSLRAEDTALYYCARARDYNLYGMDVWGQGTTVTVSS
VL: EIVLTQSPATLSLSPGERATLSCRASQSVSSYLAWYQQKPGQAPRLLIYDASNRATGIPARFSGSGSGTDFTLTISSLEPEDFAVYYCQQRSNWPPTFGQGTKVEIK
notes: also called anti-5T4 antibody 32G1
By EC50 (read off the curve) is commonly meant the concentration needed to bring the measured effect to its halfway point. Lower therefore signals greater potency. The term Kd denotes the free concentration of one partner at which half of the binding sites on the other are occupied at equilibrium, for simple one-to-one binding. For orientation: koff means the rate constant with which the complex falls apart. Lower therefore signals slow dissociation. The kon is a measure of how fast the partners come together. On to B1, for which the binding ratio in the test with h5T4-His protein was 0.89. For the same molecule, the “Percentage of Positive Cells” value in test [1] was 56.3%. Further, in test [2], the “EC50 (read off the curve)” value was around 0.3 µg/mL. In test [3], this molecule showed a Kd of 368 nM, a koff of 0.0249 s⁻¹ and a kon of 67700 M⁻¹ s⁻¹.
